Laboratory results from the nanobody polyreactivity screen of Harvey et al. (2022).

Test: yeast display, Sf9 membrane polyspecificity reagent, FACS + sequencing; frameworks hold sequencing errors
Summary of the method: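 Nanobodies came from a synthetic yeast display library in Saccharomyces cerevisiae BJ5465, induced with galactose for 36–48 hours and stained for 1 hour at 4 °C with 10% biotinylated, detergent-solubilized Sf9 membrane reagent. Cells were enriched on streptavidin microbeads and then FACS-sorted, with low and high (top ~1%) gates set on anti-HA fluorescence for expression and streptavidin fluorescence for reagent binding. Each polyreactivity label reflects the gate a clone came from. Genes were amplified by colony PCR, sequenced by MiSeq 2 × 250 and filtered by CDR length.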

Sequence	polyreactivity (PSR sort gate)
QVQLVESGGGLVQAGGSLLLSCAASGSIFGKNAMGWYRQAPGKERELVAAISRSGARTYYADSVKGRFTISRDNAKNTVYLQMNSLKPEDTAVYDCAAVYWWAYRGTYSSLYKHFVYWGQGSQVTVSS	high polyreactivity
QVQLVESGGRLVQAGGSLRLSCAASGSTLFAYAMGSYRQAPGKETELVASISSGGNTNYADSVKGRFTISRDNSKNSVYLQMYSLKPEDTAVYYCNAGVPYHYPSYTYLYYYWGQGTQVTVSS	low polyreactivity
QVQLVESGGGLVQAGGSLRLSCAASGIIFERNAMGWYRQAPGKERELVAAISSNGGSTYYADSVKGRFTISRDNAKNTVYLQMNSLKPEDTAVYYCAAQGVYAGSRYYYWGQGTQVTVSS	high polyreactivity
QGQLVESGGGLVQAGGSLRLSCAASGSTFPSYAMGWYRQAPGKERELVAAISRRSSRTYYADSVKGRFTISRDNAKNTVYLQMNSLKPEDTAVYYCNADAGRHSDEYGYDYWGQGTEVTVSS	high polyreactivity
QVQLVESGGGLVQAGGSLRLSCAASGYIFGVYAMGWYRQAPGKERELVAVITVTGGSTYYADSVKGRFTISRDNAKNTVYLQMNSLKPEDTAVYYCAARGYGNLARVYHGYGYWGQGTQVTVSS	high polyreactivity
QVQLVESGLGIVQAGGSLRLSCASSGSTFIFNTMVWYRQAPGKERELVAAIRLSGGSTYYADSVKGRFTISRDNAKNTVYLLINSLNPEDTAVYYCARRLATSGHTYDYWGQGTQVSVSS	low polyreactivity
QVQLLESGGGLVKAGGSLRLTCADSGRTLYRYAMGWYRQAPGKERELVAAINQSGGRTYYADSVKGRFTISRDNAKNTVYLQMNSLKPDDTAVYYCNTASSRAFLTHGRYGRSDYWGQGTQVTVSS	high polyreactivity
QVQLVESGGGLVQAGGSLRLSCAASGIIFYYYAMGWYRQAPGKERELVACISYSGGSTYADSVKGRFTISRDNAKNTVYLQMNSLKPEDTAVYYCAADYDYGGHWYDYWGQGTQVTVSS	low polyreactivity
QVQLVESGGGLVQAGGSLRLICAASGFTFNFYAMGWYRQAPGKEMELVASITSSGARTYYADSVKGRFTISRDNAKNSVYLQMNSQKPEDTAVYYCAARVYRYSASRAYDYWGQGTQVTVSS	high polyreactivity
QVQLVESGGGIVQAGGSLRLSCAASGIIFLDYVMVWYRQAPGKERELVAAINSGGSTYYADSVKGRFTISRDNAKNTVYLQMNSLIPEDTAVYYCAADDYYKFDYWGQGTQVTLSS	low polyreactivity
QVQLVESGGGLVQAGGSLRLSCAASGRTFGYNAMGWYRQAPGKESELVAAINWSGASTYYADSVKGRFTISRDNAKNTVYLQMNSLKAEDTAVYYCAADYSYIYGFDYWGQGTQVTVSS	low polyreactivity
QVQLVESGGGLVQAGGSLRLSCAATGIIFGDNAMGWYRQAPGKERELVAAFTIGGTSTYNADSVKGRFTISRDNAKNTVYLQMNSQKPEDTAVYYCAKTILYDCDYWGQGTQVTVSS	low polyreactivity
QVQLVESGGGLVQAGGSLRLSCAASGIIFYKYTMGWYRQAPGKERELVAAITKSGVRTYYADSVKGRFTISRDNAKNTVYLQMKSLKPEDTSVYYCAAKTPTKDRGSDFDYWGQGTQVTVSS	high polyreactivity
QVQLVESGGGLVQAGGSLRLSCAASGRIIGLYTMGWYRQAPGKERELVARITSGDRTYYADSVKGRFTISRDNAKNTVYLQMNSLKPEDTAVYYCAAEFTYRYDYWGQGTQVTVSS	high polyreactivity
QVQLVESGGGLVQAGGSLRLSCDASGSIFEYYAMGWYRQAPGKERELVAAIRVSDVNTYYADSVKGRFTISRDNAKNTVYFQMNSLKPEDTAVYYCANAYKGYSDFDYWGQGTQVTVSS	high polyreactivity
QVQLVESGGGLVQAGGRLRLSCAASGRIFGRYAMGWYRQAPGKERELVAAITWTGGTTYYADSVKGRFTISRDNAKNTVYLQMNSLKPEDTAVYYCAARQGYGIYGDYYYWGQGTQVTVSS	high polyreactivity
QVQLVESGGGLVQAGGSLRLSCAASGFIFRRYAMGWYRPAPGKEREFVAAISWSGATTYYADSVKGRFTISRDNAKITVYLQMNSLKPEDTAVYYCAKDVRRSPSTWDNYWGQGTQVTVSS	high polyreactivity
QVQLVESGGGLVQAGGSLRLSCAASGNIFTTYAMGWYRQAPGKERELVAAISRSGGRTNYADSVKGRFTISRDNAKNTVYLQLNSLKPEDTAVYYCAADGVPGRAVDYEYWGQGTQVTVSS	high polyreactivity
QVQLVESGGGLVQAGGSLRLSCAASGNTFWYYAMGWYRQAPGKERELVAAISWDGGITYYADSVKGRFTISRDNAKNTVFLQMNRLKPEDTAVYYCATLIPRKGSRYYHRGYWGQGTQLTVSS	high polyreactivity
QVQLVESGGGLVHAGGSLRLSCAASGSIYIFNAMGWYRQAPGKEREFVARIRRDSSTYYADSVKGRFTISRDNAKNTVYLQMNSLKPEDTAVYYCAAKRVYRRVELNSWGQGTQVTVSS	low polyreactivity
QVQLVESGGGLVQAGGSLRLSCAASGSTFKFNAMGWYRQAPGKERELVAAISRGGRTNYADSVKGRFTISRDNAKNTVYLQMNSLKPEDTAFYYCAADYSTLYKDDYWGQGTQVTVSS	low polyreactivity
KVQLVESGGGLVHAGGILRLISAASGSIFTYYYMGWYRQAPGKERELVAAISWNGGTTYYADSVKGRFTISRDNAKNTVYLQMNSLKPEDTAVYYCNKDGSYRYDYWGQGTQVTVSS	low polyreactivity

Sequence	polyreactivity (PSR sort gate)
QGQLVESGGGLVQAGGSLRLSCAASGSTVPQYAMGWYRQAPGKERELVAVITDSGGSTYYADSVKGRFTISRDNAKNTVYLQMNSLKPEDTAVYYCAARRWSPRSGLGYGYWGQGTQVTVSS	high polyreactivity
QVQLVESVGGLVQAGGSLRLSCAASGIIFSYYAMGWYRQPPGKERELVAVISSGGGSTYYADSVKGRFTISRDNAKNTVYLQMNSLKPDDTAVYYCNADRVDRELFTFDYWGQGTQVTVSS	high polyreactivity
QVQIVESGGGLVQAGGSLRLSCAASGLIFKYYAMGWYRQAPGKERELVATITRGGGSTYYADSVKGRFTISRDNAKNTVYLQMNSLKPEDTAVYYCAADYWYVYPRYNPGDYWGQGTQVTVSS	high polyreactivity
QVQLVESGGGLVQAGGSLRLSCAASGNIFDIYAMGRYRQAPGKERELVAAISSGGSTYYADSVKGRFTISRDNAKNTVYLQMNSLKPEDTAVYYCAESRVGYYRYEYWGQGTQVTVSS	low polyreactivity
QVQLVESGGGLVQAGGSLRLSCAASGIIFWYNAMGWYRQAPGKERELVASISTGGRTYYADSVKGRFTISRDNAKYTVYLQMNSLKPEDTAVYYCAAASRVGFLYYYWGQGTQVTVSS	low polyreactivity
QLQLVESGGGLVQAGGSLRLSCAASGSTFGFYAMGWYRQAPGKARELVAAISSSGSTYYADSVKGRFTISRDNAKITVYLQMNSLKPEDTAVYYCAAQPGYYDYDYWGQGTQVTVSS	low polyreactivity
QVQLVESGGGLVQAGGSLRLSCAASGSTFQYYAMGWYRQAPGKERELVAAISSGGSTYYADSVKGRFTISRDNAKNTVYLQMNSLKPEDTAVYYCAADFVNRQANRQFDYWGQGTQVTVSS	high polyreactivity
QVQLVESGGGLVQAGGSLRLSCAASGNIFLSYAIGCYRQAPGKEREFVPAIRWSGASTYYADSVKGRFTISRDNAKNTVELQMNSLKPEDTAVYYCGRRALCPRRGIRYDYWGQGSQVTVSS	high polyreactivity
QVQLVESGGGLVQAGGSLRLSCAASGTFSFYAMGWYRQAPGKERELVAAITRSSSRTYYADSVKGRFTISRDNAKNTVYLQMNSLKPEDTAVYYCRAKQVNRFDYWGQGTQVTVSS	high polyreactivity
QLQLVESGGGLVQAGGSLRLSCAASGFTFKYNARGWYSQAPGKARELVASISSGSTTYADSVKGRFTISRDNAKNTVYLQINSLKPEDTAVYYCAASVSRGKRFRYGYVFKMDHWGQGTQVTVSS	low polyreactivity
QVQLVESGGGLVQAGGSLRLSCSASGRTFLGYAMGWYRQAPGKERELVAAITIGGGTYADSVKGRFTISRDNAKNTVYLQMNSLKPEDTAVYYCAKPGWYDGDYWGQGTQVTVSS	low polyreactivity
QVQLVESGGGLVQAGGSLRLSCAASGSTLGPNVMGWYRQAPGKERELVAAISWRGGSTYYADSVKGRFTISRDNAKNTVYLQMNSLKPEDTAVNYGAARTTTYPYGYWGQGTQVTVSS	high polyreactivity
QVQLVESGGGLVQAGGSLRLSCAASGFILSPNTMGWYRQAPGKERELVAAISSDVSTYADSVKGRFTISRDNAKNTVYLQMNSLKPEDTAVYYCNADDFGYASYEYWGQGTQVTVSS	low polyreactivity
QVQLVESGGGLVQAGGSLRLSCADSGLTFQRYAMGWYRQAPGKERELVAAISQRGSSTYYADSVKGRFTISRDNAKNTVYLQMNSLKPEDTAVYYCNARPYLFWLSIYDYWGQGTQVTVSS	low polyreactivity
QDQLVESGGGLVQAGGSLRLSCAASGNIFTSNAMGWYRQAPGKERELVAANTSGGSTYYADSVKGRFTISRDNAKNTVYLQMYSLKPEDTAVYFCASLRRPHLRPYYYWGQGTQGTVSS	high polyreactivity
QVQLVESGGGLVQAGGSLRLSCAASGSIFLANAMGWYRQAPGKERELVAGISSSVTTNYADSVKGRFTISRDNAKNTVYLQMNSLKPEDTAVYYCNTVLRVQFYWGQGTQVSVSS	low polyreactivity
QVQLVESGGGLVQAGGSLRLSCAASGRIFDLNVMGWYRQAPGKERELVAAIRSGGRTNYADSVKGRFTISRDNAKNTVYLQMNSLKPEDTAVYYCNVRRGYWHPGYGWANYDYWGQGTQVTVSS	high polyreactivity
QVQLVESGGGLVQAGGSLRLSCAASGITFYGNAMGWYRQAPGKERELVAAIRRGGSTNYADSVKGRFTISRDNAKNTVYLQMNSLKPEDTALYYCAADRYGYTYRNYRVGYWGQGTQVTVSS	high polyreactivity
QVQLVESGGGLVQAGGSLRLSCAASGFTFRANAMGWYRQAPGKERELVAVITGSGGRTYYADSVKGRFTISRDNAKNTVYLQMNSLKPEDTAVYYCNASGRKTNPYDYWGQGTQVTVSS	high polyreactivity
QVQLEESGGGLVQAGGSLRLSCAASGSTFEYKAKGWYRQAPGKERELVASSTNYADSVKGRFTISRDNAKNTVYLQMNSLKPEDTAVYYCAREQGVNRNHDYWGQGTQVTVSS	low polyreactivity
QVQLVESGGGLVQAGGSLRLSCAASGFIFLGNAMGWYRQAPGKERELVASISRGGSTNYADSVKGRFTISRDNAKNTVYLQMNSLKPEDTAVYYCAADLSDKFGYWGQGTQVTVSS	low polyreactivity
